Patent US6855815 (Amgen, dated 2005)

Tests used:
[1] = biological target: T1, c-IAP1 N-terminally tagged with a FLAG epitope peptide (Homo sapiens (Human), UniProt Q13490 1-618); test: co-immunoprecipitation from transfected 293 cells (anti-TNF-R2 IP, anti-FLAG Western)
T1 construct: Expressed in human embryonic 293 cells from a pRK vector (CMV promoter); also called FLAG-tagged c-IAP1
Experimental: A transfection based co-immunoprecipitation assay was used to investigate how c-IAP1 interacts with the complex of TNF-R2 and TRAFs. In this system c-IAP1 was N-terminally tagged with a FLAG epitope peptide and expressed in human embryonic 293 cells under the control of a constitutive CMV promotor (pRK vector). The c-IAP1 expression vector was transiently co-transfected into 293 cells with expression vectors for TNF-R2 and TRAFs. After 24–36 h, the cells were harvested and extracts immunoprecipitated with anti-TNF-R2 antibodies, followed by Western analysis with anti-FLAG antibodies. […] Thus, c-IAP1 is a component of the TNF-R2 (CD40)/TRAF signaling complex.

[2] = biological target: T2, human cellular inhibitor of apoptosis protein 2 (c-IAP2) (human, UniProt Q13489 1-604); test: yeast two-hybrid
T2 construct: The two-hybrid fusion partners are not described; also called h c-IAP2
Source text: (§1) A yeast two-hybrid system was used to determine how c-IAP1 and -2 interact with TNF-R2 and/or TRAFs. The following results were obtained indistinguishably for c-IAP1 and c-IAP2. […] However, a direct interaction could be detected between c-IAP1 and TRAF2. […] Consistently, c-IAP1 also interacted with TRAF1. […] Thus c-IAP1 and TNF-R2 bind to non-overlapping docking sites within the TRAF domain of TRAF2. […] Similarly, combinations of two of the three BIR motifs e.g. amino acid residues 46–99 and 204–249 of c-IAP1 and 29–82 and 189–234 of c-IAP2, separated by IAP1 derived intervening sequences of varying lengths are assayed for TRAF1 and TRAF2 binding. […] The RING finger domain of c-IAP1/2 (amino acids 571–618 of c-IAP1 and 557–604 of c-IAP2) is not required for interaction with TRAFs, but rather mediates subsequent steps in the c-IAP1/2 signaling cascade. Similarly, a variety of c-IAP1 derived N-terminal leader sequences fused to the c-IAP1 RING finger domain are used to assay signal transduction mediation.

[3] = biological target: T3, human cellular inhibitor of apoptosis protein 1 (c-IAP1) (human, UniProt Q13490 1-618); test: yeast two-hybrid
T3 construct: Tested in a yeast two-hybrid system; also called h c-IAP1
Source text: as §1

T1 sequence (Q13490 whole entry): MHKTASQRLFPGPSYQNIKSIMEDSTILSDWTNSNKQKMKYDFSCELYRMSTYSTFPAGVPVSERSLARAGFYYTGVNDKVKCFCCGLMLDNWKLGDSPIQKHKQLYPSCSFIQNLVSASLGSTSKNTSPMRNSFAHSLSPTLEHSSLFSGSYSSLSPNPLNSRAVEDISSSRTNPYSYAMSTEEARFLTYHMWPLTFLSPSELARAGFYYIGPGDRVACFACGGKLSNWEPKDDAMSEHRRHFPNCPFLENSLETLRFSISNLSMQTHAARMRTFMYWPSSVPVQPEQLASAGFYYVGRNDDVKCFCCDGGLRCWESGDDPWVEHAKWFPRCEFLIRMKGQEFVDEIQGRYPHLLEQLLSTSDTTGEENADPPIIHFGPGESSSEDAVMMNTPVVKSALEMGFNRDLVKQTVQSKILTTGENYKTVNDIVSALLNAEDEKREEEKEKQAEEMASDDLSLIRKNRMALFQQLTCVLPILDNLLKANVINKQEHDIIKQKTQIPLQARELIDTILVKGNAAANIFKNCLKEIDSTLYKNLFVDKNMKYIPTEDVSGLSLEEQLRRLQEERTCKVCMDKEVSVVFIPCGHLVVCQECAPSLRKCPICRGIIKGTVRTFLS
T3 sequence (Q13490 whole entry): as above
T2 sequence (Q13489 whole entry, the tested form may be a part): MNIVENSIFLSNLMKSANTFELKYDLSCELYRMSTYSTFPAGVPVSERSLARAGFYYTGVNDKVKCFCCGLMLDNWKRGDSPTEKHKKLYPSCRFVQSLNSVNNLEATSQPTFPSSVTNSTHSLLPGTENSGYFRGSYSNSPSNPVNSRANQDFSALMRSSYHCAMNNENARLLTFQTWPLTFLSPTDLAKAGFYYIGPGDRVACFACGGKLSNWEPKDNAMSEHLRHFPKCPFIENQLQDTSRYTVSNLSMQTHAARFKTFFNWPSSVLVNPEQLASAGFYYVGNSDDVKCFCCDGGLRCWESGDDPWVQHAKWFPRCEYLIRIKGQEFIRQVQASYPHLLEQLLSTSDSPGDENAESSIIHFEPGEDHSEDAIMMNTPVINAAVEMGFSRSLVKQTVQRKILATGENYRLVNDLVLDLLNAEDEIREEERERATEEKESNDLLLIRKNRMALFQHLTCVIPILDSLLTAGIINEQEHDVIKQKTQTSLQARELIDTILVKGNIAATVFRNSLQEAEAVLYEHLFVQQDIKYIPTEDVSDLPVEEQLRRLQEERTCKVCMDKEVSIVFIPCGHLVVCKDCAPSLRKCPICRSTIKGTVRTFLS

binding result [1]: no binding
binding result [2]: no binding
binding result [3]: no binding
B1: TNF-R2 (receptor, UniProt P20333 288-461, looked up)
chain: KKKPLCLQREAKVPHLPADKARGTQGPEQQHLLITAPSSSSSSLESSASALDRRAPTRNQPQAPGVEASGAGEARASTGSSDSSPGGHGTQVNVTCIVNVCSSSDHSSQCSSQASSTMGDTDSSPSESPKDEQVPFSKEECAFRSQLETPETLLGSTEEKPLPLGVPDAGMKPS
notes: In the co-immunoprecipitation it was expressed from a vector in 293 cells
